Measurements from paper PMC6775479.

How the values were obtained:
[1] = biological target: HPV16 L1 protein (human papillomavirus type 16) (UniProt P03101)
[2] = biological target: L1-I peptide (HPV16 L1 residues 474-488) (human papillomavirus type 16); experiment: ITC; peptide (1 mM) in 50 mM phosphate buffer pH 7.4 in the sample cell; 3HP-β-LG or β-LG (50 μM) in the titration needle; 18°C, 2 μl injections
[3] = biological target: L1-II peptide (HPV16 L1 residues 493-505) (human papillomavirus type 16); experiment: as above

Chain of UniProt P03101 (P03101 whole entry, the tested form may be a part): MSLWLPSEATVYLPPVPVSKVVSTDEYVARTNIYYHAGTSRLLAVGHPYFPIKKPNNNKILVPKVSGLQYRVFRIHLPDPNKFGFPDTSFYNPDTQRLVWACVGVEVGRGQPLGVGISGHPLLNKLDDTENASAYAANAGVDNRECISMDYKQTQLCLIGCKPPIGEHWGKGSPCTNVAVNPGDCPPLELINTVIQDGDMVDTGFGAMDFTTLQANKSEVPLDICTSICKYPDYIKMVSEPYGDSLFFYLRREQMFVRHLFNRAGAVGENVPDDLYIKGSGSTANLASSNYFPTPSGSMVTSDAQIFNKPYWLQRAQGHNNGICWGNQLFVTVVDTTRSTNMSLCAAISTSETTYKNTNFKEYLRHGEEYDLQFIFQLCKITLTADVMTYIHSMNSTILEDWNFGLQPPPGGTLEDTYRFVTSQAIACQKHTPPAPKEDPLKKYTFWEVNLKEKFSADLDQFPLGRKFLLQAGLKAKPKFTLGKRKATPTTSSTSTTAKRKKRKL

Substance: 3-hydroxyphthalic anhydride (3HP)-modified bovine beta-lactoglobulin (from UniProt P02754 17-178)
- inhibition of HPV16 PsV entry into HeLa cells (luciferase), IC50 [1]: 0.59 µg/mL
- Ka [2]: 231000 M⁻¹
- Ka [3]: 104000 M⁻¹
